Columns and labels:
HLA-B*08:01 = assay: IEDB peptide-MHC binding, purified MHC/competitive/radioactivity; filed as Kd, often an IC50 or EC50 that approximates it; ≥ and ≤ were set here for values at or beyond the usual limits of such assays
HLA-B*46:01 = assay: IEDB peptide-MHC binding, purified MHC/direct/fluorescence; filed as Kd, often an IC50 or EC50 that approximates it; ≥ and ≤ were set here for values at or beyond the usual limits of such assays; details: source organism: West Nile virus
HLA-A*30:01 = assay: IEDB peptide-MHC binding, purified MHC/competitive/radioactivity; filed as Kd, often an IC50 or EC50 that approximates it; ≥ and ≤ were set here for values at or beyond the usual limits of such assays
HLA-A*02:01 [1] = assay: IEDB peptide-MHC binding, purified MHC/competitive/fluorescence; ≥ and ≤ were set here for values at or beyond the usual limits of such assays
HLA-A*03:01 [2] = assay: IEDB peptide-MHC binding, purified MHC/competitive/radioactivity; filed as Kd, often an IC50 or EC50 that approximates it; ≥ and ≤ were set here for values at or beyond the usual limits of such assays; details: source organism: Dengue virus 4 Philippines/H241/1956
HLA-A*11:01 [3] = assay: as above; details: source organism: Dengue virus 4 Philippines/H241/1956
HLA-B*44:02 = assay: as above
HLA-A*03:01 [4] = assay: IEDB peptide-MHC binding, purified MHC/direct/fluorescence; filed as Kd, often an IC50 or EC50 that approximates it; ≥ and ≤ were set here for values at or beyond the usual limits of such assays
HLA-A*31:01 = assay: as above
HLA-A*02:01 [5] = assay: as above
HLA-B*15:01 = assay: as above
HLA-B*40:01 = assay: as above; details: source organism: Influenza A virus (A/Hong Kong/1131/1998(H1N1))
HLA-A*01:01 [6] = assay: as above
HLA-B*27:05 = assay: as above; details: source organism: SARS-CoV1
HLA-B*58:01 = assay: as above; details: source organism: SARS-CoV1
HLA-A*30:02 = assay: IEDB peptide-MHC binding, purified MHC/competitive/radioactivity; filed as Kd, often an IC50 or EC50 that approximates it; ≥ and ≤ were set here for values at or beyond the usual limits of such assays
HLA-A*01:01 [7] = assay: as above
HLA-A*11:01 [8] = assay: IEDB peptide-MHC binding, purified MHC/direct/fluorescence; filed as Kd, often an IC50 or EC50 that approximates it; ≥ and ≤ were set here for values at or beyond the usual limits of such assays; details: source organism: SARS-CoV1
HLA-A*02:02 = assay: IEDB peptide-MHC binding, purified MHC/competitive/radioactivity; filed as Kd, often an IC50 or EC50 that approximates it; ≥ and ≤ were set here for values at or beyond the usual limits of such assays; details: source organism: Vaccinia virus WR
HLA-A*02:03 = assay: as above; details: source organism: Vaccinia virus WR
HLA-A*02:06 = assay: as above; details: source organism: Vaccinia virus WR
HLA-A*69:01 = assay: IEDB peptide-MHC binding, purified MHC/direct/fluorescence; filed as Kd, often an IC50 or EC50 that approximates it; ≥ and ≤ were set here for values at or beyond the usual limits of such assays; details: source organism: Rickettsia prowazekii
[9] = source organism: Vaccinia virus Copenhagen
[10] = source organism: Vaccinia virus WR
[11] = source organism: Dengue virus 1 Brazil/97-11/1997
[12] = source organism: Dengue virus 4 Philippines/H241/1956
[13] = source organism: Zaire ebolavirus
[14] = source organism: Coxiella burnetii
[15] = source organism: Salmonella enterica subsp. enterica serovar Typhimurium
[16] = source organism: Salmonella enterica
[17] = source organism: Sudan ebolavirus
[18] = source organism: Dengue virus 4 Dominica/814669/1981
[19] = source organism: Brucella melitensis

LFLRRRCPL was tested, and the Kd (HLA-B*08:01; [9]) was 0.125 nM.

LLKMPFRMV showed a Kd (HLA-B*08:01; [10]) of 7.12 nM.

For LLVAPAYSF, the Kd (HLA-B*46:01) was no less than 20000 nM.

In the case of LSIVSLFPLC, the Kd (HLA-A*30:01; [11]) is reported as 801 nM.

MLIGIEILN showed an IC50 (HLA-A*02:01 [1]; [10]) of 554 nM.

Work on MLKLQKCVM yielded a Kd (HLA-B*08:01; [10]) of 9.25 nM.

MSLRSTIIK showed a Kd (HLA-A*30:01; [10]) of 37.2 nM.

In the case of MTLMKGASK, the Kd (HLA-A*03:01 [2]) is reported as 18 nM, the Kd (HLA-A*11:01 [3]) is reported as 143 nM and the Kd (HLA-A*30:01; [12]) is reported as 1520 nM.

For NEMVLLTMK, the Kd (HLA-B*44:02; [11]) was 865 nM.

PLGVIHNST gave an IC50 (HLA-A*02:01 [1]; [13]) of no less than 120000 nM.

Work on PTWFGISFR yielded a Kd (HLA-A*03:01 [4]; [14]) of no less than 20000 nM and a Kd (HLA-A*31:01; [14]) of 209 nM.

QAERTGEPDY was tested, and the Kd (HLA-A*30:01; [12]) was 6210 nM.

QLCDEITIL showed a Kd (HLA-A*02:01 [5]; [15]) of 744 nM and a Kd (HLA-B*15:01; [15]) of 1200 nM.

Work on REKIDGVKL yielded a Kd (HLA-B*40:01) of 46.9 nM.

Sequence RFLTHYFTK has a Kd (HLA-A*01:01 [6]; [14]) of no less than 20000 nM.

For RKKARSTPF, the Kd (HLA-B*08:01; source organism: Dengue virus 2 Jamaica/1409/1983) was 413 nM.

RLKMDKLEL gave a Kd (HLA-B*08:01; source organism: Dengue virus 3 Martinique/1243/1999) of 556 nM.

RLYYDSMSY showed a Kd (HLA-A*01:01 [6]; source organism: SARS-CoV1) of 7950 nM, a Kd (HLA-A*02:01 [5]; source organism: SARS-CoV1) of no less than 22800 nM and a Kd (HLA-A*31:01; source organism: SARS-CoV1) of 6940 nM. For the same sequence, the Kd (HLA-B*15:01; source organism: SARS-CoV1) was 130 nM, the Kd (HLA-B*27:05) was 4810 nM and the Kd (HLA-B*58:01) was 778 nM.

RNIARHLAL showed a Kd (HLA-B*08:01; [10]) of 3.24 nM.

For RPQPMEHKY, the Kd (HLA-A*30:02; [11]) was 134 nM.

RRLTSREVLL showed a Kd (HLA-B*08:01; [11]) of 5480 nM.

RSQSSTIIV showed a Kd (HLA-A*30:01; [10]) of 559 nM.

Work on RSWQPPQPR yielded a Kd (HLA-A*03:01 [4]; [16]) of no less than 20000 nM and a Kd (HLA-A*31:01; [16]) of 35 nM.

In the case of RTICTLPYL, the Kd (HLA-A*30:01; [10]) is reported as 0.738 nM.

For RTPQDNQLIY, the Kd (HLA-A*01:01 [7]; [12]) was 919 nM and the Kd (HLA-A*30:02; [12]) was 198 nM.

RYRMHPMSK showed a Kd (HLA-A*30:01; [10]) of 0.0676 nM.

With SFKKNGAIK the Kd (HLA-A*30:01; [11]) was 357 nM.

SFRRFVNKL gave a Kd (HLA-B*08:01; [9]) of 1380 nM.

SLKIMIQSM showed a Kd (HLA-B*08:01; [10]) of 2.48 nM.

SPMPRHHSI was tested, and the Kd (HLA-B*08:01; [10]) was 1110 nM.

Sequence SRRYRCSFA has a Kd (HLA-B*08:01; [10]) of 52.3 nM.

SSPGPTTEA showed an IC50 (HLA-A*02:01 [1]; [17]) of 14600 nM.

Work on TEQMAPHHKI yielded a Kd (HLA-B*44:02; [12]) of 41.7 nM.

TSSDTYACW showed a Kd (HLA-A*11:01 [8]) of 19400 nM and a Kd (HLA-B*58:01) of 14.5 nM.

In the case of TTLTASLVML, the Kd (HLA-A*01:01 [7]; [18]) is reported as 1050 nM.

In the case of VKVLRPTPKG, the Kd (HLA-A*30:01; [12]) is reported as 9230 nM.

VKVLRPTPRG showed a Kd (HLA-A*30:01; [18]) of 6080 nM.

With VLALYSPPLI the Kd (HLA-A*02:02) was 15.7 nM, the Kd (HLA-A*02:03) was 101 nM and the Kd (HLA-A*02:06) was 868 nM.

For VMKRYSAPSE, the Kd (HLA-A*30:01; [18]) was 6330 nM.

For VTAKWLWGFL, the Kd (HLA-A*01:01 [7]; [11]) was 17700 nM.

VTTNNLLEQL gave a Kd (HLA-A*02:02) of 4690 nM, a Kd (HLA-A*02:03) of 17900 nM and a Kd (HLA-A*02:06) of 5910 nM.

In the case of VVGKPYKEV, the Kd (HLA-A*02:01 [5]; source organism: Rickettsia prowazekii) is reported as 1960 nM and the Kd (HLA-A*69:01) is reported as 605 nM.

Work on WLTPFEKEFT yielded a Kd (HLA-A*02:02) of 2370 nM, a Kd (HLA-A*02:03) of 1550 nM and a Kd (HLA-A*02:06) of no less than 30800 nM.

Work on WMARRHAER yielded a Kd (HLA-A*03:01 [4]; [19]) of no less than 20000 nM and a Kd (HLA-A*31:01; [19]) of 13.9 nM.

YIPPCQCTV was tested, and the Kd (HLA-A*02:02) was 196 nM, the Kd (HLA-A*02:03) was 445 nM and the Kd (HLA-A*02:06) was 92.5 nM.

With YKLFLESGA the IC50 (HLA-A*02:01 [1]; [13]) was no less than 209000 nM.

For YLFIRKNVI, the Kd (HLA-B*08:01; [9]) was 0.706 nM.

YTRPEIDVL showed a Kd (HLA-A*02:02) of 115 nM, a Kd (HLA-A*02:03) of 73.6 nM and a Kd (HLA-A*02:06) of 154 nM.

Sequence YVHKAQGTG has an IC50 (HLA-A*02:01 [1]; [17]) of no less than 236000 nM.

YVPSAEDNYL showed a Kd (HLA-A*02:02) of no less than 70000 nM, a Kd (HLA-A*02:03) of no less than 70400 nM and a Kd (HLA-A*02:06) of no less than 69800 nM.
